Legend:
[1] = target: T1, human serum albumin (human, UniProt P02768 25-609); test: ELISA, E. coli supernatant
T1 construct: mature; also called human Alb

[2] = target: T2, dog serum albumin (dog, UniProt P49822 25-608); test: ELISA, coated albumin, E. coli supernatant
T2 construct: mature; also called dog Alb; Canine albumin

[3] = target: T3, horse serum albumin (horse, UniProt P35747 25-607); test: ELISA, coated albumin, E. coli supernatant
T3 construct: mature; also called horse Alb; Equine albumin

[4] = target: T1, human serum albumin; test: ELISA, coated albumin, E. coli supernatant
[5] = target: T4, tetanus neurotoxin (TeNT), authentic tetanus holotoxin (Clostridium tetani, UniProt P04958 2-1315); test: GT1b-TeNT inhibition ELISA, EC at A450 0.59
[6] = target: T4, tetanus neurotoxin (TeNT), authentic …; test: competition ELISA on TeNT, binder biotinylated; competitor SVT13L
[7] = target: T4, tetanus neurotoxin (TeNT), authentic …; test: ELISA, directly coated TeNT
[8] = target: T4, tetanus neurotoxin (TeNT), authentic …; test: competition ELISA on TeNT, binder biotinylated; competitor mAb 6F57
[9] = target: T4, tetanus neurotoxin (TeNT), authentic …; test: competition ELISA on TeNT, binder biotinylated; competitor SVT34L
[10] = target: T4, tetanus neurotoxin (TeNT), authentic …; test: competition ELISA on TeNT, binder biotinylated; competitor SVT03L
[11] = target: T4, tetanus neurotoxin (TeNT), authentic …; test: ELISA, directly coated TeNT, biotinylated binder
[12] = target: T4, tetanus neurotoxin (TeNT), authentic …; test: competition ELISA on TeNT, binder biotinylated; competitor SVT15L
[13] = target: T4, tetanus neurotoxin (TeNT), authentic …; test: ELISA, TeNT captured with coated mAb 6E7
[14] = target: T5, recombinant tetanus toxin fragment C (rTTC) (Clostridium tetani, UniProt P04958 865-1315); test: ELISA, directly coated rTTC, unlabelled binder
T5 sequence: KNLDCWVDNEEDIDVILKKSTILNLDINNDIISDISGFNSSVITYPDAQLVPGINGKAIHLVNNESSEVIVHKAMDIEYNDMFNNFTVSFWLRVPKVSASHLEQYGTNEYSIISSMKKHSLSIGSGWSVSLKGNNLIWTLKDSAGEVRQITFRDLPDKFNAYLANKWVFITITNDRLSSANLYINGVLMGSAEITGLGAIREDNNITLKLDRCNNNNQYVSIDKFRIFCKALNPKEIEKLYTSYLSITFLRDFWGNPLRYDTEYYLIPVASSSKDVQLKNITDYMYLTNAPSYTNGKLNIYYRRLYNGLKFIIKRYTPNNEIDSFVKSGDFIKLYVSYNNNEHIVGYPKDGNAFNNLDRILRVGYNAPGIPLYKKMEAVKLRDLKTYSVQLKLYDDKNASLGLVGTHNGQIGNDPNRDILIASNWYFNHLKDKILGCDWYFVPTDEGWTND

[15] = target: T4, tetanus neurotoxin (TeNT), authentic …; test: ELISA, directly coated TeNT, unlabelled binder
[16] = target: T4, tetanus neurotoxin (TeNT), authentic …; test: competition ELISA on TeNT, binder biotinylated; competitor SVT08L
[17] = target: T5, recombinant tetanus toxin fragment C …; test: ELISA, rTTC captured with coated mAb 6E7
[18] = target: T4, tetanus neurotoxin (TeNT), authentic …; test: ELISA, TeNT captured with cAb-TT2, unlabelled binder
[19] = target: T4, tetanus neurotoxin (TeNT), authentic …; test: competition ELISA on TeNT, binder biotinylated; competitor SVT22L
[20] = target: T4, tetanus neurotoxin (TeNT), authentic …; test: competition ELISA on TeNT, binder biotinylated; competitor SVT16L
[21] = target: T4, tetanus neurotoxin (TeNT), authentic …; test: GT1b-TeNT inhibition ELISA, unlabelled binder
[22] = target: T4, tetanus neurotoxin (TeNT), authentic …; test: competition ELISA on TeNT, binder biotinylated; competitor SVT15L-3FW4M
[23] = target: T4, tetanus neurotoxin (TeNT), authentic …; test: competition ELISA on TeNT, binder biotinylated; competitor mAb 6E7
[24] = target: T4, tetanus neurotoxin (TeNT), authentic …; test: competition ELISA on TeNT, binder biotinylated; competitor mAb 14F5
[25] = target: T4, tetanus neurotoxin (TeNT), authentic …; test: competition ELISA on TeNT, binder biotinylated; competitor SVT06L
[26] = target: T4, tetanus neurotoxin (TeNT), authentic …; test: competition ELISA on TeNT, binder biotinylated; competitor mAb 11n185
[27] = target: T4, tetanus neurotoxin (TeNT), authentic …; test: competition ELISA on TeNT, binder biotinylated; competitor SVT02L
[28] = target: T4, tetanus neurotoxin (TeNT), authentic …; test: ELISA, TeNT captured with cAb-TT2, biotinylated binder
[29] = target: T6, dog albumin (dog Alb) (dog, UniProt P49822 25-608); test: ELISA: coated dog Alb, anti-his6 PO
T6 construct: also called Canine albumin

[30] = target: T6, dog albumin (dog Alb); test: ELISA: coated dog Alb, anti-his6 PO; remark: listed apart in the source

| Binder | binding result [1] | absorbance at 450 nm [2] [A450] | absorbance at 450 nm [3] [A450] | absorbance at 450 nm [4] [A450] | concentration giving A450 of 0.59 [5] [µg/mL] | % inhibition of binding [6] [%] | absorbance at 450 nm [7] | % inhibition of binding [8] [%] | % inhibition of binding [9] [%] | % inhibition of binding [10] [%] | EC resulting in A450 0.4 [11] [ng/mL] | maximal absorbance at 450 nm [11] | % inhibition of binding [12] [%] | absorbance at 450 nm [13] | maximal absorbance at 450 nm [14] | EC resulting in A450 0.2 [15] [ng/mL] | maximal absorbance at 450 nm [15] | % inhibition of binding [16] [%] | absorbance at 450 nm [17] | EC resulting in A450 0.15 [18] [ng/mL] | other results |
| --- | --- | --- | --- | --- | --- | --- | --- | --- | --- | --- | --- | --- | --- | --- | --- | --- | --- | --- | --- | --- | --- |
| SVA06 (VHH) VHH: QVQLQESGGRLVQAEDSLRLSCAASGRTFVSYDMGWFRQAPGKEREFVAAINWRGYTTDYVDSVKGRFFISRDIAKSTVYLQMNNLKPEDTAVYYCAARQMSGSSRYSPPGRVGYDFWGQGTQVTVSS | no binding | 1.99 | 1.66 | 0.067 |  |  |  |  |  |  |  |  |  |  |  |  |  |  |  |  |  |
| SVA02 (VHH, not shown: large carriers) VHH: QVQLQQSGGGLVQAGGSLRLSCAASGRFFSRQVMGWFRQAPGKDREFVGVISWDNGVTFYSDSVKGRFTMSREIAKKTVHLQMNSLKPEDTAVYYCAAGNALHSRYYSPSKYDYWGPGTQVTVSS | no binding | 1.87 | 1.9 | 0.065 |  |  |  |  |  |  |  |  |  |  |  |  |  |  |  |  |  |
| SVT15L-3FW4M (VHH) VHH: QVQLQESGGGLVQTGGSLRLSCRASGRAFANYHFGWFRQAPGKDREFVASISWKGGSTYYANFALGRFTSSVDRAESSVYLQMSGLTPEDTATYYCAAHDGGDWNYHTGMDYWGQGTQVTVSS |  |  |  |  | 0.039 | -5 | 0.477 | 6 | 3 | -8 | 2 | 1.37 | 96 | 0.236 | 0.206 | 3.8 | 0.817 | 6 | 0.528 | 9.8 | maximal absorbance at 450 nm [18]: 0.195; % inhibition of binding [19]: 4%; % inhibition of binding [20]: 3%; minimal absorbance at 450 nm [21]: 0.127; % inhibition of binding [22]: 95%; % inhibition of binding [23]: 6%; % inhibition of binding [24]: 2%; % inhibition of binding [25]: 7%; % inhibition of binding [26]: -1%; % inhibition of binding [27]: 10%; EC resulting in A450 0.2 [28]: 3.5 ng/mL; maximal absorbance at 450 nm [28]: 0.697 |
| SVA16 (VHH, not shown: large carriers) VHH: QVQLQESGGGVVQAGGSLRLSCAASGRTVSSSAMGWFRLAPGKEREFVVGISRSGGSIFYADSVKGRFTISRKNAKNTVDLQMNSLKPEDTAVYYCAAGYRPGYGDYGRVFYREDEYDDWGQGTQVTVSS | no binding | 2.02 | 2.11 | 0.083 |  |  |  |  |  |  |  |  |  |  |  |  |  |  |  |  |  |
| SVT16-L123Q-GS2-SVA12M2-H6 (bispecific antibody) QVQLQESGGGSVQAGDSLRLSCAASGRTISNYAMGWFRQAPGKQREFVAAISRSDNTYYTDSVKGRFTISRDNAKNTLYLQMNSLKPEETAVYYCAADPNLMYESKWKYRALEAWGQGTQVTVSSGGGGSGGGSEVQLVESGGGLVQAGGSLRLSCAASGRTFSYYPMAWFRQAPGQEREFVAAIIGADTTYYADSLKGRFTISRDNAKNMVYLQMNSLKPEDTAVYYCAARNTYWSDVYYREGQYTNWGQGTQVTVSSHHHHHH |  |  |  |  |  |  |  |  |  |  |  |  |  |  |  |  |  |  |  |  | maximal absorbance value [29]: 1.78 A450; Effective SDA Concentration at A450 0.2 [30]: 34 ng/mL |
| SVT16L (VHH) VHH: QVQLQESGGGSVQAGDSLRLSCAASGRTISNYAMGWFRQAPGKQREFVAAISRSDNTYYTDSVKGRFTISRDNAKNTLYLQMNSLKPEETAVYYCAADPNLMYESKWKYRALEAWGQGTLVTVSS |  |  |  |  | 0.047 | 96 | 1.27 | 2 | 95 | -1 | 0.52 | 1.42 | 12 | 1.13 | 1.01 | 1.1 | 1.57 | 2 | 1.38 | 3.2 | maximal absorbance at 450 nm [18]: 0.363; % inhibition of binding [19]: 96%; % inhibition of binding [20]: 95%; minimal absorbance at 450 nm [21]: 0.129; % inhibition of binding [22]: 17%; % inhibition of binding [23]: 6%; % inhibition of binding [24]: 6%; % inhibition of binding [25]: -8%; % inhibition of binding [26]: -2%; % inhibition of binding [27]: 13%; EC resulting in A450 0.2 [28]: 1.6 ng/mL; maximal absorbance at 450 nm [28]: 0.971 |
